Assay results from patent US20240270846A1 (published 2024).
Substitutions are numbered along the chain they refer to. In names and notes the source's numbering stands.

B1: CE115HA000 N53I one-arm antibody (antibody, human IgG1, kappa, L234A L235A, N297A, name in Kabat numbering)
heavy: QVQLVESGGGVVQPGRSLRLSCAASGFTFSNAWMHWVRQAPGKGLEWVAQIKAKSINYATYYAESVKGRFTISRDDSKNSLYLQMNSLKTEDTAVYYCRYVHYGAYYGVDAWGQGTTVTVSSASTKGPSVFPLAPSSKSTSGGTAALGCLVKDYFPEPVTVSWNSGALTSGVHTFPAVLQSSGLYSLSSVVTVPSSSLGTQTYICNVNHKPSNTKVDKKVEPKSCDKTHTCPPCPAPEAAGGPSVFLFPPKPKDTLMISRTPEVTCVVVDVSHEDPEVKFNWYVDGVEVHNAKTKPREEQYASTYRVVSVLTVLHQDWLNGKEYKCKVSNKALPAPIEKTISKAKGQPREPQVYTLPPSRCELTKNQVSLSCAVKGFYPSDIAVEWESNGQPENNYKTTPPVLDSDGSFFLVSKLTVDKSRWQQGNVFSCSVMHEALHNHYTQKSLSLSPDYKDDDDK
chain: EPKSSDKTHTCPPCPAPELLGGPSVFLFPPKPKDTLMISRTPEVTCVVVDVSHEDPEVKFNWYVDGVEVHNAKTKPREEQYNSTYRVVSVLTVLHQDWLNGKEYKCKVSNKALPAPIEKTISKAKGQPREPQVCTLPPSRDELTKNQVSLWCLVKGFYPSDIAVEWESNGQPENNYKTTPPVLDSDGSFFLYSKLTVDKSRWQQGNVFSCSVMHEALHNRYTQKSLSLSP
light: DIVMTQSPLSLPVTPGEPASISCRSSQSLVHSNRNTYLHWYQQKPGQAPRLLIYKVSNRFSGVPDRFSGSGSGTDFTLKISRVEAEDVGVYYCGQGTQVPYTFGQGTKLEIKRTVAAPSVFIFPPSDEQLKSGTASVVCLLNNFYPREAKVQWKVDNALQSGNSQESVTEQDSKDSTYSLSSTLTLSKADYEKHKVYACEVTHQGLSSPVTKSFNRGEC
notes: one-arm antibody
B2: CE115HA000 N54G one-arm antibody (antibody, human IgG1, kappa, L234A L235A, N297A, name in Kabat numbering)
heavy: B1 heavy with I56N, N57G
chain: B1 chain
light: B1 light
notes: one-arm antibody
B3: CE115HA000 N54A one-arm antibody (antibody, human IgG1, kappa, L234A L235A, N297A, name in Kabat numbering)
heavy: B1 heavy with I56N, N57A
chain: B1 chain
light: B1 light
notes: one-arm antibody
B4: CE115HA000 N54F one-arm antibody (antibody, human IgG1, kappa, L234A L235A, N297A, name in Kabat numbering)
heavy: B1 heavy with I56N, N57F
chain: B1 chain
light: B1 light
notes: one-arm antibody
B5: CE115HA000 Q50D one-arm antibody (antibody, human IgG1, kappa, L234A L235A, N297A, name in Kabat numbering)
heavy: B1 heavy with Q50D, I56N
chain: B1 chain
light: B1 light
notes: one-arm antibody
B6: CE115HA000 N54K one-arm antibody (antibody, human IgG1, kappa, L234A L235A, N297A, name in Kabat numbering)
heavy: B1 heavy with I56N, N57K
chain: B1 chain
light: B1 light
notes: one-arm antibody
B7: CE115HA000 N54D one-arm antibody (antibody, human IgG1, kappa, L234A L235A, N297A, name in Kabat numbering)
heavy: B1 heavy with I56N, N57D
chain: B1 chain
light: B1 light
notes: one-arm antibody
B8: CE115HA000 N53K one-arm antibody (antibody, human IgG1, kappa, L234A L235A, N297A, name in Kabat numbering)
heavy: B1 heavy with I56K
chain: B1 chain
light: B1 light
notes: one-arm antibody
B9: CE115HA000 Q50E one-arm antibody (antibody, human IgG1, kappa, L234A L235A, N297A, name in Kabat numbering)
heavy: B1 heavy with Q50E, I56N
chain: B1 chain
light: B1 light
notes: one-arm antibody
B10: CE115HA000 Q50A one-arm antibody (antibody, human IgG1, kappa, L234A L235A, N297A, name in Kabat numbering)
heavy: B1 heavy with Q50A, I56N
chain: B1 chain
light: B1 light
notes: one-arm antibody

These binders were tested against T1, CD3 epsilon homodimer protein (UniProt P07766 23-126) (assay: SPR Biacore T200, antibody over immobilised CD3e homodimer;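 also: CD3 epsilon homodimer amine-coupled on a CM4 chip, run at 25 °C in HBS-EP+, Z = bound amount of each single-residue H chain variant over that of the parent antibody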).
T1 construct: also called CD3 (CD3 epsilon)
T1 sequence (P07766 23-126): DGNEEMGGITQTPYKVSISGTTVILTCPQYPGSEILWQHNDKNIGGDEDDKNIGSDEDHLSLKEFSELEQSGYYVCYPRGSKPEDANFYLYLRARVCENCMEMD
Method: An appropriate amount of CD3 epsilon homodimer protein was immobilized onto Sensor chip CM4 (GE Healthcare Japan Corp.) by the amine coupling method. Then, the antibody having an appropriate concentration was injected thereto as an analyte and allowed to interact with the CD3 epsilon homodimer protein on the sensor chip. Then, the sensor chip was regenerated by the injection of 10 mmol/L glycine-HCl (pH 1.5). The assay was conducted at 25 degrees C., and HBS-EP+(GE Healthcare Japan Corp.) was used as a running buffer. […] Each parameter was calculated using Biacore T200 Evaluation Software (GE Healthcare Japan Corp.).
Specifically, when the amount of the antibody comprising CE115HA000 bound was defined as X and the amount of the H chain one-amino acid altered form bound was defined as Y, a value of Z (ratio of amounts bound)=Y/X was used.

Row | Binder | ratio of amounts bound (Z=Y/X vs CE115HA000)
1 | B1 | 0.68
2 | B2 | 0.98
3 | B3 | 0.85
4 | B4 | 1.12
5 | B5 | 0.27
6 | B6 | 1.2
7 | B7 | 0.62
8 | B8 | 0.78
9 | B9 | 0.26
10 | B10 | 0.24
